In assay [1] the target is bovine aorta ATPDase type II (78 KDa catalytic unit) (bovine) (UniProt O18956). The assay can be described thus: precipitation of ADPase activity with lectin-agarose.
Assay [2] shares this target. The assay can be described thus: precipitation with lectin-agarose, elution with Me-alpha-D-mannopyranoside.
For assay [3] the target is unchanged. As to the kind of experiment: precipitation with lectin-agarose, elution with D-GlcNAc.

Sequence of UniProt O18956 (O18956 whole entry, form in doubt): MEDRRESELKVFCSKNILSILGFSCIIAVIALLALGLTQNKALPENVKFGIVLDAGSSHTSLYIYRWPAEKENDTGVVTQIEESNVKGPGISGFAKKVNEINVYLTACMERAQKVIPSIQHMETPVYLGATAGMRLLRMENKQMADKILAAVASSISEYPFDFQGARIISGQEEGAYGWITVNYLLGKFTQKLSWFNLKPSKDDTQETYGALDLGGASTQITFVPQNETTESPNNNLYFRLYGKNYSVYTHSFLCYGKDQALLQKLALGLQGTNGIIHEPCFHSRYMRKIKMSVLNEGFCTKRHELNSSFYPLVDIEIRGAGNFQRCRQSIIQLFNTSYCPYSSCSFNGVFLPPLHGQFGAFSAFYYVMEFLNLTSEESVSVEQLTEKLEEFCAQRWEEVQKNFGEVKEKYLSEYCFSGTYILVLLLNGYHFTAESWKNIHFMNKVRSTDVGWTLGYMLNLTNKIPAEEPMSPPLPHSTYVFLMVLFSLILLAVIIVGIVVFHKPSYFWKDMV

In assay [1], “Con A conjugated to agarose (from UniProt P02866)” gave a Relative ADPase activity, Bound fraction of 95% and a Relative ADPase activity, Supernatant (unbound) fraction of 5%. The Relative ADPase activity, Eluted fraction in assay [2] came out at 62%.

Take “WGA conjugated to agarose (from UniProt P10968 27-197)”: in assay [1], the Relative ADPase activity, Bound fraction was determined as 95% and the Relative ADPase activity, Supernatant (unbound) fraction worked out at 5%. The same substance displayed a Relative ADPase activity, Eluted fraction in assay [3] of 69%.

The values above are taken from US20030040094A1.
